# PMC8813930, “The toposiomerase IIIalpha-RMI1-RMI2 complex orients human Bloom’s syndrome helicase for efficient disruption of D-loops”
# Assays:
# BLM-dWH [1] = molecular target: T1, BLM-dWH (Homo sapiens, UniProt P54132 642-1077); assay: fluorescence anisotropy; no ATP; 5 mM MgCl2; 50 mM Tris-HCl pH 7.5, 50 mM NaCl, 1 mM DTT, 5 mM MgCl2, 50 µg/mL BSA, 25 °C; 10 nM labeled DNA in direct titrations; conditions: protein: recombinant; label: 3'-fluorescein; single strand
# BLM-dH [2] = molecular target: T2, BLM-dH (Homo sapiens, UniProt P54132 642-1191); assay: as above; conditions: protein: recombinant; label: 3'-fluorescein; single strand
# BLMCR [3] = molecular target: T3, BLMCR (Homo sapiens, UniProt P54132 642-1290); assay: as above; conditions: protein: recombinant; label: 3'-fluorescein; single strand
# BLMFL [4] = molecular target: T4, BLMFL (Homo sapiens, UniProt P54132 1-1417); assay: as above; conditions: protein: recombinant; label: 3'-fluorescein; single strand
# BLM-dWH [5] = molecular target: T1, BLM-dWH; assay: competition fluorescence anisotropy; vs ss54-FLU; 5 mM MgCl2; 50 mM Tris-HCl pH 7.5, 50 mM NaCl, 1 mM DTT, 5 mM MgCl2, 50 µg/mL BSA, 25 °C; 10 nM labeled DNA in direct titrations; conditions: protein: recombinant, label: 5'-Cy3 on D3
# BLM-dH [6] = molecular target: T2, BLM-dH; assay: as above; conditions: protein: recombinant, label: 5'-Cy3 on D3
# BLMCR [7] = molecular target: T3, BLMCR; assay: as above; conditions: protein: recombinant, label: 5'-Cy3 on D3
# BLMFL [8] = molecular target: T4, BLMFL; assay: as above; conditions: protein: recombinant, label: 5'-Cy3 on D3
# [9] = molecular target: TOPOIIIalpha (TRR complex);RMI1 (TRR complex);RMI2 (TRR complex) (Homo sapiens;Homo sapiens;Homo sapiens, UniProt Q13472;Q9H9A7;Q96E14 1-1001;1-625;1-147, ||); assay: fluorescence anisotropy; 5 mM MgCl2; 50 mM Tris-HCl pH 7.5, 50 mM NaCl, 1 mM DTT, 5 mM MgCl2, 50 µg/mL BSA, 25 °C; 10 nM labeled DNA in direct titrations; conditions: protein: recombinant;recombinant;recombinant, tags: His;;, copies: 1;1;1, label: fluorescein on D3 (in place of Cy3)
# [10] = three-stranded D-loop-like structure (D1+D2+D3), D3 3' part invades and pairs with D1
# [11] = four-stranded D-loop-like structure (D1+D2+D3+D4), D3 3' part pairs with D1, 5' part with D4
# [12] = 20 bp duplex, 3' overhang 21 nt on D3
# T2 sequence (P54132 642-1191): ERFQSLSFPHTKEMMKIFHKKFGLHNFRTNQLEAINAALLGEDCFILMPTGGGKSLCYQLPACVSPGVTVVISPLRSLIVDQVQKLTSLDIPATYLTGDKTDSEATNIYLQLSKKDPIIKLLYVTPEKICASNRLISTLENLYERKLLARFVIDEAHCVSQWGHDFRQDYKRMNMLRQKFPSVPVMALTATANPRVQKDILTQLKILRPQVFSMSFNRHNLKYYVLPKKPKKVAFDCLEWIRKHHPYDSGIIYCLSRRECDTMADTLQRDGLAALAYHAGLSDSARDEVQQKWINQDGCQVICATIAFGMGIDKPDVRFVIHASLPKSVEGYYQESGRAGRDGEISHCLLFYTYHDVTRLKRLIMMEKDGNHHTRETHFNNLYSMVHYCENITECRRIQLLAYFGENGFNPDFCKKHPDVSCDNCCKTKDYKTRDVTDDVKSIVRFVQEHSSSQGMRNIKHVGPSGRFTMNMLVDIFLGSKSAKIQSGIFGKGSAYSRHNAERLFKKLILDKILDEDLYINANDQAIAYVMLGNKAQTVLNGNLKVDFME
# T4 sequence (P54132 whole entry): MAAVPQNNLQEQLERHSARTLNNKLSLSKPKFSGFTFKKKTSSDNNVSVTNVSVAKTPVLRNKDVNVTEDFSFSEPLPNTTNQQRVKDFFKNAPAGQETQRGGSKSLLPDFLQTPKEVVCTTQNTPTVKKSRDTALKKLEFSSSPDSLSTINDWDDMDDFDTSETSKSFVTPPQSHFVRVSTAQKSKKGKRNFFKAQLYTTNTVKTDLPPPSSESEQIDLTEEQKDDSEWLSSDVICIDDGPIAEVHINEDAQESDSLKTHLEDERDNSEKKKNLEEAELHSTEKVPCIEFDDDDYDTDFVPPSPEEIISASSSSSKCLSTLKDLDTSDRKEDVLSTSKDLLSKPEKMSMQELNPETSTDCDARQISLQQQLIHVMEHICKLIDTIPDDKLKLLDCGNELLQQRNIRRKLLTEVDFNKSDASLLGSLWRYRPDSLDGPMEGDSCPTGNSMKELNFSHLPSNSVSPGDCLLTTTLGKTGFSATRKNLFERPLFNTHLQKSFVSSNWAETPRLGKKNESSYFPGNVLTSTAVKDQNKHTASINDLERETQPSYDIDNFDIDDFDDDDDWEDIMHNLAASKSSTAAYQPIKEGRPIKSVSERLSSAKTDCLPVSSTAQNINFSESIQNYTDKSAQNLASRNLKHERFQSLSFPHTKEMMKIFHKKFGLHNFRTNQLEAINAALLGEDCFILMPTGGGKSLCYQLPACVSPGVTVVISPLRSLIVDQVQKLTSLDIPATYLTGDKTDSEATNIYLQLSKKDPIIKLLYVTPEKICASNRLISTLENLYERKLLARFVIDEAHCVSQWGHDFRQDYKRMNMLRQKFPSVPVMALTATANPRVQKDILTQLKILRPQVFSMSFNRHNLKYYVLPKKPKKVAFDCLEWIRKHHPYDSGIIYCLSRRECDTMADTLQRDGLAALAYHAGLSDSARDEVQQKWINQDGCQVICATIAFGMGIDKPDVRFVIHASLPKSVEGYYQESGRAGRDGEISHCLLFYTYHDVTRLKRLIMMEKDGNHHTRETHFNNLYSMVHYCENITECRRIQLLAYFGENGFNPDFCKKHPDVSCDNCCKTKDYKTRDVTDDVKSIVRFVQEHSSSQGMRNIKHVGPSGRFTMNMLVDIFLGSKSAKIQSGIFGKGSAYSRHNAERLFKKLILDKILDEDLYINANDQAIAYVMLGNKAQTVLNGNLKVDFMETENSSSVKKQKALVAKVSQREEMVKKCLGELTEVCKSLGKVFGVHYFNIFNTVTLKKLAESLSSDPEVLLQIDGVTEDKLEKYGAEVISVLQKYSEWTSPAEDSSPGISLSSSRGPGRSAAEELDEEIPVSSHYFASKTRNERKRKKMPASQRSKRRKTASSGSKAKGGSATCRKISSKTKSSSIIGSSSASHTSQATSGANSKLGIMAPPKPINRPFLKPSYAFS
# T3 sequence (P54132 642-1290): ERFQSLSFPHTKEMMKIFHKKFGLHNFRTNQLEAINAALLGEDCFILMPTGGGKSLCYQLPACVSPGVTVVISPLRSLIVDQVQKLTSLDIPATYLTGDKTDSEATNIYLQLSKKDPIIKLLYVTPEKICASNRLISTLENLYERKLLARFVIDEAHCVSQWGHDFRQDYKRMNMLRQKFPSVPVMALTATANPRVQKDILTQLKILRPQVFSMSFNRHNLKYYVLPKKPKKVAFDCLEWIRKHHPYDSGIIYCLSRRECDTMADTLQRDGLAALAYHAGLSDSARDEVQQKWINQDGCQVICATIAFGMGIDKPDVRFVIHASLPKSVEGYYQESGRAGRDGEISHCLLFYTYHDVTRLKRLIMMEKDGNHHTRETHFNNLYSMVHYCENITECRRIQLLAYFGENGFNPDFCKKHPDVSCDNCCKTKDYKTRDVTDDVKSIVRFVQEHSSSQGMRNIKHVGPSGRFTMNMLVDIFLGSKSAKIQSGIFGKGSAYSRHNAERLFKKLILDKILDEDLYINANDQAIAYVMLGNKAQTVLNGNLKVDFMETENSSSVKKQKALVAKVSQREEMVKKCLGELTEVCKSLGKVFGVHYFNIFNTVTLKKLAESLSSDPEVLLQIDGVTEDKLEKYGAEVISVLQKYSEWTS
# T1 sequence (P54132 642-1077): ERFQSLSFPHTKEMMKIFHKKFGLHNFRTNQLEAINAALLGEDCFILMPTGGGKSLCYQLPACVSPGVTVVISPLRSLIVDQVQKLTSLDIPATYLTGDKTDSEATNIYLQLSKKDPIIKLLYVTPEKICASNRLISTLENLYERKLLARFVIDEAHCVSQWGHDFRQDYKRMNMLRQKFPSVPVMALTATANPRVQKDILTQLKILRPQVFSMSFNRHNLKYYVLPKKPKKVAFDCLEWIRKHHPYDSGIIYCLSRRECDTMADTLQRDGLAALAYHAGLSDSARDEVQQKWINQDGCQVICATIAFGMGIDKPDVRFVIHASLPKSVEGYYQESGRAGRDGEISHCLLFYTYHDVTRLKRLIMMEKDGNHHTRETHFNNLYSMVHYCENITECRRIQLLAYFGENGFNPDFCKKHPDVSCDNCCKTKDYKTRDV
# Sequence of TOPOIIIalpha (TRR complex);RMI1 (TRR complex);RMI2 (TRR complex) (Q13472 whole entry, chain 1 of 3): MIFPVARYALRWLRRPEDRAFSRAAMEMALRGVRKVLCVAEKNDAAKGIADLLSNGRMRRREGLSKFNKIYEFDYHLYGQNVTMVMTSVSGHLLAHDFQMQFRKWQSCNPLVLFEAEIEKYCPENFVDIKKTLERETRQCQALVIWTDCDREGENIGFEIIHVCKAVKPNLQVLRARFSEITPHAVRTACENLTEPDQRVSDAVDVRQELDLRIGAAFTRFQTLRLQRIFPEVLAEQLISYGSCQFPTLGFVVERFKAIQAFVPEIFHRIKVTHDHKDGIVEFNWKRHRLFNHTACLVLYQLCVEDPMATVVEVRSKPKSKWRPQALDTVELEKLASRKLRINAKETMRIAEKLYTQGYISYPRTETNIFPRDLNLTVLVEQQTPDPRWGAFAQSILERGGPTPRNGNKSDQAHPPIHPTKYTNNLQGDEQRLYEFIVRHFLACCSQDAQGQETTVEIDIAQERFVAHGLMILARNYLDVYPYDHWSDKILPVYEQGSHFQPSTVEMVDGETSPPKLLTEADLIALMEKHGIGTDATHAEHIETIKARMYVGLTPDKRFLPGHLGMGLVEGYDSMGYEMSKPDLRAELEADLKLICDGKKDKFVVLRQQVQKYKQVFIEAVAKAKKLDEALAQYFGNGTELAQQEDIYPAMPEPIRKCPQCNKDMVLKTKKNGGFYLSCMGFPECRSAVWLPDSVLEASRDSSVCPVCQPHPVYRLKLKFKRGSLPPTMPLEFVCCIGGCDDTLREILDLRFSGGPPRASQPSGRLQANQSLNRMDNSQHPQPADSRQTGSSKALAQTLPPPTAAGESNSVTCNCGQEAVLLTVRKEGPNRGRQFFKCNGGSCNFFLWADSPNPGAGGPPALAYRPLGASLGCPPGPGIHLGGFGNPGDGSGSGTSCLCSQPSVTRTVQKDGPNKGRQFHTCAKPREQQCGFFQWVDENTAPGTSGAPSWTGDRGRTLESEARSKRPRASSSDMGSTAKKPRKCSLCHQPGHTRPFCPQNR
# Sequence of TOPOIIIalpha (TRR complex);RMI1 (TRR complex);RMI2 (TRR complex) (Q9H9A7 whole entry, chain 2 of 3): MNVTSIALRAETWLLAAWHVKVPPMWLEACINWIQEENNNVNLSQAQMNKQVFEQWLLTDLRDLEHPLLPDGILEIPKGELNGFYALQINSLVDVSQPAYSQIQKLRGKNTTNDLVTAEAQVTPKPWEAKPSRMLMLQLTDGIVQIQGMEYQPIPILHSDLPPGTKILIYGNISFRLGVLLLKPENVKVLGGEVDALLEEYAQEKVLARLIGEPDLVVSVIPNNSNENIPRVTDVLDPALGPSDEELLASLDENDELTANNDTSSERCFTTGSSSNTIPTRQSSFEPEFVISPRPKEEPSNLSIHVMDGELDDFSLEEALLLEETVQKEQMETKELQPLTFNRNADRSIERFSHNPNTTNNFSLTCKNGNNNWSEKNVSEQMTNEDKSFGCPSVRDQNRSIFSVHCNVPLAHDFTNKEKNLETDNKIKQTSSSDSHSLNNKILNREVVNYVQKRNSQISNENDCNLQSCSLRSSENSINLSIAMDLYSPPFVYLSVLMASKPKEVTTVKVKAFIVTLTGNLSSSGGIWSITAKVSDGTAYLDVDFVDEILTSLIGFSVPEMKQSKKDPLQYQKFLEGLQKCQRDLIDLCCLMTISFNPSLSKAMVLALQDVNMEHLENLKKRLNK
# Sequence of TOPOIIIalpha (TRR complex);RMI1 (TRR complex);RMI2 (TRR complex) (Q96E14 whole entry, chain 3 of 3): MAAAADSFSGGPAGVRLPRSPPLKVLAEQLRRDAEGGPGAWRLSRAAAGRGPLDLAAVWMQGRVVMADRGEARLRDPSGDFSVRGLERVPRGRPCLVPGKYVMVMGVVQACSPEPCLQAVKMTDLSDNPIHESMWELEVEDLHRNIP
binder,measurement,setting,value
ss54-FLU (ssDNA) DNA: TCCTTTTGATAAGAGGTCATTTTTGCGGATGGCTTAGAGCTTAATTGCGCAACG,Kd,BLM-dWH [1],520 ± 30 nM
same,Kd,BLM-dH [2],61 ± 16 nM
same,Kd,BLMCR [3],74 ± 14 nM
same,Kd,BLMFL [4],61 ± 10 nM
DL3 (Cy3) (structured_DNA) DNA 1: GACGCTGCCGAATTCTACCAGTGCCTTGCTAGGACATCTTTGCCCACCTGCAGGTTCACCC DNA 2: GGGTGAACCTGCAGGTGGGCGGCTGCTCATCGTAGGTTAGTTGGTAGAATTCGGCAGCGTC DNA 3: TAAGAGCAAGATGTTCTATAAAAGATGTCCTAGCAAGGCAC,Kd,BLM-dWH [5]; [10],56 ± 7 nM
same,Kd,BLM-dH [6]; [10],< 1 nM
same,Kd,BLMCR [7]; [10],< 1 nM
same,Kd,BLMFL [8]; [10],1.2 ± 0.8 nM
DL3 (fluorescein) (structured_DNA) DNA 1: GACGCTGCCGAATTCTACCAGTGCCTTGCTAGGACATCTTTGCCCACCTGCAGGTTCACCC DNA 2: GGGTGAACCTGCAGGTGGGCGGCTGCTCATCGTAGGTTAGTTGGTAGAATTCGGCAGCGTC DNA 3: TAAGAGCAAGATGTTCTATAAAAGATGTCCTAGCAAGGCAC,Kd,[9]; three-stranded D-loop-like structure (D1+D2+D3),13 ± 1 nM
DL4 (Cy3) (structured_DNA) DNA 1: GACGCTGCCGAATTCTACCAGTGCCTTGCTAGGACATCTTTGCCCACCTGCAGGTTCACCC DNA 2: GGGTGAACCTGCAGGTGGGCGGCTGCTCATCGTAGGTTAGTTGGTAGAATTCGGCAGCGTC DNA 3: TAAGAGCAAGATGTTCTATAAAAGATGTCCTAGCAAGGCAC DNA 4: TATAGAACATCTTGCTCTTA,Kd,BLM-dWH [5]; [11],56 ± 13 nM
same,Kd,BLM-dH [6]; [11],< 1 nM
same,Kd,BLMCR [7]; [11],< 1 nM
same,Kd,BLMFL [8]; [11],2.3 ± 1.3 nM
3T (Cy3) (dsDNA) DNA 1: TAAGAGCAAGATGTTCTATAAAAGATGTCCTAGCAAGGCAC DNA 2: TATAGAACATCTTGCTCTTA,Kd,BLM-dWH [5]; [12],430 ± 70 nM
same,Kd,BLM-dH [6]; [12],39 ± 3 nM
same,Kd,BLMCR [7]; [12],24 ± 2 nM
same,Kd,BLMFL [8]; [12],10 ± 3 nM
DL4 (fluorescein) (structured_DNA) DNA 1: GACGCTGCCGAATTCTACCAGTGCCTTGCTAGGACATCTTTGCCCACCTGCAGGTTCACCC DNA 2: GGGTGAACCTGCAGGTGGGCGGCTGCTCATCGTAGGTTAGTTGGTAGAATTCGGCAGCGTC DNA 3: TAAGAGCAAGATGTTCTATAAAAGATGTCCTAGCAAGGCAC DNA 4: TATAGAACATCTTGCTCTTA,Kd,[9]; four-stranded D-loop-like structure (D1+D2+D3+D4),488 ± 70 nM
